ChEMBL document CHEMBL2203217, “Prohormone-substrate peptide sequence recognition by peptidylglycine α-amidating monooxygenase and its reflection in increased glycolate inhibitor potency” (Bioorg Med Chem Lett, 2012)

Experiments:
[1] = substrate: CC(=O)N1CCC[C@H]1C(=O)N[C@@H](CC(C)C)C(=O)NCC(=O)NCC(=O)O; test: (§1) Binding affinity to secreted PAM in human DMS53 cell culture medium after 2 hrs by HPLC analysis; details: DMS-53
[2] = substrate: CC(=O)N1CCC[C@H]1C(=O)N[C@@H](CC(C)C)C(=O)N[C@@H](Cc1ccccc1)C(=O)NCC(=O)O; test: as §1; details: DMS-53
[3] = substrate: CC(=O)NCC(=O)NCC(=O)O; test: as §1; details: DMS-53
[4] = substrate: CC(=O)NCC(=O)O; test: as §1; details: DMS-53
[5] = substrate: CC(=O)N[C@@H](CC(C)C)C(=O)NCC(=O)NCC(=O)O; test: as §1; details: DMS-53
[6] = substrate: CC(=O)N[C@@H](CC(C)C)C(=O)N[C@@H](Cc1ccccc1)C(=O)NCC(=O)O; test: as §1; details: DMS-53
[7] = substrate: CC(=O)N[C@@H](Cc1ccccc1)C(=O)NCC(=O)O; test: as §1; details: DMS-53
[8] = substrate: CC(C)[C@H](N)C(=O)NCC(=O)N[C@@H](C)C(=O)N1CCC[C@H]1C(=O)NCC(=O)O; test: as §1; details: DMS-53
[9] = substrate: CC(C)[C@H](N)C(=O)NCC(=O)N[C@@H](C)C(=O)N[C@@H](Cc1ccccc1)C(=O)NCC(=O)O; test: as §1; details: DMS-53
[10] = substrate: CC[C@H](C)[C@@H]1NC(=O)[C@H](Cc2ccc(O)cc2)NC(=O)[C@@H](N)CSSC[C@@H](C(=O)N2CCC[C@H]2C(=O)N[C@@H](CC(C)C)C(=O)NCC(=O)NCC(=O)O)NC(=O)[C@H](CC(N)=O)NC(=O)[C@H](CCC(N)=O)NC1=O; test: as §1; details: DMS-53
[11] = substrate: CC[C@H](C)[C@@H]1NC(=O)[C@H](Cc2ccc(O)cc2)NC(=O)[C@@H](N)CSSC[C@@H](C(=O)N2CCC[C@H]2C(=O)N[C@@H](CC(C)C)C(=O)N[C@@H](Cc2ccccc2)C(=O)NCC(=O)O)NC(=O)[C@H](CC(N)=O)NC(=O)[C@H](CCC(N)=O)NC1=O; test: as §1; details: DMS-53
[12] = substrate: CC[C@H](C)[C@H](NC(=O)[C@H](C)NC(=O)[C@@H](NC(=O)[C@H](CCC(N)=O)NC(=O)[C@@H]1CCCN1C(=O)[C@H](Cc1ccccc1)NC(=O)[C@@H](NC(=O)[C@H](Cc1cnc[nH]1)NC(=O)[C@H](Cc1ccccc1)NC(=O)[C@H](CCCCN)NC(=O)[C@H](CC(N)=O)NC(=O)[C@H](Cc1ccccc1)NC(=O)[C@H](CC(=O)O)NC(=O)[C@H](CCC(N)=O)NC(=O)[C@@H](NC(=O)[C@H](Cc1ccc(O)cc1)NC(=O)[C@@H](NC(=O)CNC(=O)[C@H](CC(C)C)NC(=O)[C@H](CCSC)NC(=O)[C@@H]1CSSC[C@H](N)C(=O)NCC(=O)N[C@@H](CC(N)=O)C(=O)N[C@@H](CC(C)C)C(=O)N[C@@H](CO)C(=O)N[C@@H]([C@@H](C)O)C(=O)N1)[C@@H](C)O)[C@@H](C)O)[C@@H](C)O)[C@@H](C)O)C(=O)NCC(=O)N[C@H](C(=O)NCC(=O)N[C@@H](C)C(=O)N1CCC[C@H]1C(=O)NCC(=O)O)C(C)C; test: as §1; details: DMS-53
[13] = substrate: CC[C@H](C)[C@H](NC(=O)[C@H](C)NC(=O)[C@@H](NC(=O)[C@H](CCC(N)=O)NC(=O)[C@@H]1CCCN1C(=O)[C@H](Cc1ccccc1)NC(=O)[C@@H](NC(=O)[C@H](Cc1cnc[nH]1)NC(=O)[C@H](Cc1ccccc1)NC(=O)[C@H](CCCCN)NC(=O)[C@H](CC(N)=O)NC(=O)[C@H](Cc1ccccc1)NC(=O)[C@H](CC(=O)O)NC(=O)[C@H](CCC(N)=O)NC(=O)[C@@H](NC(=O)[C@H](Cc1ccc(O)cc1)NC(=O)[C@@H](NC(=O)CNC(=O)[C@H](CC(C)C)NC(=O)[C@H](CCSC)NC(=O)[C@@H]1CSSC[C@H](N)C(=O)NCC(=O)N[C@@H](CC(N)=O)C(=O)N[C@@H](CC(C)C)C(=O)N[C@@H](CO)C(=O)N[C@@H]([C@@H](C)O)C(=O)N1)[C@@H](C)O)[C@@H](C)O)[C@@H](C)O)[C@@H](C)O)C(=O)NCC(=O)N[C@H](C(=O)NCC(=O)N[C@@H](C)C(=O)N[C@@H](Cc1ccccc1)C(=O)NCC(=O)O)C(C)C; test: as §1; details: DMS-53
[14] = substrate: C[C@H](N)C(=O)N1CCC[C@H]1C(=O)NCC(=O)O; test: as §1; details: DMS-53
[15] = substrate: C[C@H](N)C(=O)N[C@@H](Cc1ccccc1)C(=O)NCC(=O)O; test: as §1; details: DMS-53
[16] = substrate: C[C@H](NC(=O)CN)C(=O)N1CCC[C@H]1C(=O)NCC(=O)O; test: as §1; details: DMS-53
[17] = substrate: C[C@H](NC(=O)CN)C(=O)N[C@@H](Cc1ccccc1)C(=O)NCC(=O)O; test: as §1; details: DMS-53
[18] = substrate: N[C@@H](Cc1ccccc1)C(=O)NCC(=O)O; test: as §1; details: DMS-53
[19] = substrate: O=C(O)CNC(=O)[C@@H]1CCCN1; test: as §1; details: DMS-53
[20] = substrate: CC(=O)N1CCC[C@H]1C(=O)N[C@@H](CC(C)C)C(=O)NCC(=O)NCC(=O)O; test: (§2) Binding affinity to PAM in human DMS53 cells after 2 hrs by HPLC analysis; assay type: cell-based
[21] = substrate: CC(=O)N1CCC[C@H]1C(=O)N[C@@H](CC(C)C)C(=O)N[C@@H](Cc1ccccc1)C(=O)NCC(=O)O; test: as §2; assay type: cell-based
[22] = substrate: CC(=O)NCC(=O)NCC(=O)O; test: as §2; assay type: cell-based
[23] = substrate: CC(=O)NCC(=O)O; test: as §2; assay type: cell-based
[24] = substrate: CC(=O)N[C@@H](CC(C)C)C(=O)NCC(=O)NCC(=O)O; test: as §2; assay type: cell-based
[25] = substrate: CC(=O)N[C@@H](CC(C)C)C(=O)N[C@@H](Cc1ccccc1)C(=O)NCC(=O)O; test: as §2; assay type: cell-based
[26] = substrate: CC(=O)N[C@@H](Cc1ccccc1)C(=O)NCC(=O)O; test: as §2; assay type: cell-based
[27] = substrate: CC(C)[C@H](N)C(=O)NCC(=O)N[C@@H](C)C(=O)N1CCC[C@H]1C(=O)NCC(=O)O; test: as §2; assay type: cell-based
[28] = substrate: CC(C)[C@H](N)C(=O)NCC(=O)N[C@@H](C)C(=O)N[C@@H](Cc1ccccc1)C(=O)NCC(=O)O; test: as §2; assay type: cell-based
[29] = substrate: CC[C@H](C)[C@@H]1NC(=O)[C@H](Cc2ccc(O)cc2)NC(=O)[C@@H](N)CSSC[C@@H](C(=O)N2CCC[C@H]2C(=O)N[C@@H](CC(C)C)C(=O)NCC(=O)NCC(=O)O)NC(=O)[C@H](CC(N)=O)NC(=O)[C@H](CCC(N)=O)NC1=O; test: as §2; assay type: cell-based
[30] = substrate: CC[C@H](C)[C@@H]1NC(=O)[C@H](Cc2ccc(O)cc2)NC(=O)[C@@H](N)CSSC[C@@H](C(=O)N2CCC[C@H]2C(=O)N[C@@H](CC(C)C)C(=O)N[C@@H](Cc2ccccc2)C(=O)NCC(=O)O)NC(=O)[C@H](CC(N)=O)NC(=O)[C@H](CCC(N)=O)NC1=O; test: as §2; assay type: cell-based
[31] = substrate: CC[C@H](C)[C@H](NC(=O)[C@H](C)NC(=O)[C@@H](NC(=O)[C@H](CCC(N)=O)NC(=O)[C@@H]1CCCN1C(=O)[C@H](Cc1ccccc1)NC(=O)[C@@H](NC(=O)[C@H](Cc1cnc[nH]1)NC(=O)[C@H](Cc1ccccc1)NC(=O)[C@H](CCCCN)NC(=O)[C@H](CC(N)=O)NC(=O)[C@H](Cc1ccccc1)NC(=O)[C@H](CC(=O)O)NC(=O)[C@H](CCC(N)=O)NC(=O)[C@@H](NC(=O)[C@H](Cc1ccc(O)cc1)NC(=O)[C@@H](NC(=O)CNC(=O)[C@H](CC(C)C)NC(=O)[C@H](CCSC)NC(=O)[C@@H]1CSSC[C@H](N)C(=O)NCC(=O)N[C@@H](CC(N)=O)C(=O)N[C@@H](CC(C)C)C(=O)N[C@@H](CO)C(=O)N[C@@H]([C@@H](C)O)C(=O)N1)[C@@H](C)O)[C@@H](C)O)[C@@H](C)O)[C@@H](C)O)C(=O)NCC(=O)N[C@H](C(=O)NCC(=O)N[C@@H](C)C(=O)N1CCC[C@H]1C(=O)NCC(=O)O)C(C)C; test: as §2; assay type: cell-based
[32] = substrate: CC[C@H](C)[C@H](NC(=O)[C@H](C)NC(=O)[C@@H](NC(=O)[C@H](CCC(N)=O)NC(=O)[C@@H]1CCCN1C(=O)[C@H](Cc1ccccc1)NC(=O)[C@@H](NC(=O)[C@H](Cc1cnc[nH]1)NC(=O)[C@H](Cc1ccccc1)NC(=O)[C@H](CCCCN)NC(=O)[C@H](CC(N)=O)NC(=O)[C@H](Cc1ccccc1)NC(=O)[C@H](CC(=O)O)NC(=O)[C@H](CCC(N)=O)NC(=O)[C@@H](NC(=O)[C@H](Cc1ccc(O)cc1)NC(=O)[C@@H](NC(=O)CNC(=O)[C@H](CC(C)C)NC(=O)[C@H](CCSC)NC(=O)[C@@H]1CSSC[C@H](N)C(=O)NCC(=O)N[C@@H](CC(N)=O)C(=O)N[C@@H](CC(C)C)C(=O)N[C@@H](CO)C(=O)N[C@@H]([C@@H](C)O)C(=O)N1)[C@@H](C)O)[C@@H](C)O)[C@@H](C)O)[C@@H](C)O)C(=O)NCC(=O)N[C@H](C(=O)NCC(=O)N[C@@H](C)C(=O)N[C@@H](Cc1ccccc1)C(=O)NCC(=O)O)C(C)C; test: as §2; assay type: cell-based
[33] = substrate: C[C@H](N)C(=O)N1CCC[C@H]1C(=O)NCC(=O)O; test: as §2; assay type: cell-based
[34] = substrate: C[C@H](N)C(=O)N[C@@H](Cc1ccccc1)C(=O)NCC(=O)O; test: as §2; assay type: cell-based
[35] = substrate: C[C@H](NC(=O)CN)C(=O)N1CCC[C@H]1C(=O)NCC(=O)O; test: as §2; assay type: cell-based
[36] = substrate: C[C@H](NC(=O)CN)C(=O)N[C@@H](Cc1ccccc1)C(=O)NCC(=O)O; test: as §2; assay type: cell-based
[37] = substrate: N[C@@H](Cc1ccccc1)C(=O)NCC(=O)O; test: as §2; assay type: cell-based
[38] = substrate: O=C(O)CNC(=O)[C@@H]1CCCN1; test: as §2; assay type: cell-based

B1: Peptidyl-glycine alpha-amidating monooxygenase (Homo sapiens), P19021 (protein)
chain: MAGRVPSLLVLLVFPSSCLAFRSPLSVFKRFKETTRPFSNECLGTTRPVVPIDSSDFALDIRMPGVTPKQSDTYFCMSMRIPVDEEAFVIDFKPRASMDTVHHMLLFGCNMPSSTGSYWFCDEGTCTDKANILYAWARNAPPTRLPKGVGFRVGGETGSKYFVLQVHYGDISAFRDNNKDCSGVSLHLTRLPQPLIAGMYLMMSVDTVIPAGEKVVNSDISCHYKNYPMHVFAYRVHTHHLGKVVSGYRVRNGQWTLIGRQSPQLPQAFYPVGHPVDVSFGDLLAARCVFTGEGRTEATHIGGTSSDEMCNLYIMYYMEAKHAVSFMTCTQNVAPDMFRTIPPEANIPIPVKSDMVMMHEHHKETEYKDKIPLLQQPKREEEEVLDQGDFYSLLSKLLGEREDVVHVHKYNPTEKAESESDLVAEIANVVQKKDLGRSDAREGAEHERGNAILVRDRIHKFHRLVSTLRPPESRVFSLQQPPPGEGTWEPEHTGDFHMEEALDWPGVYLLPGQVSGVALDPKNNLVIFHRGDHVWDGNSFDSKFVYQQIGLGPIEEDTILVIDPNNAAVLQSSGKNLFYLPHGLSIDKDGNYWVTDVALHQVFKLDPNNKEGPVLILGRSMQPGSDQNHFCQPTDVAVDPGTGAIYVSDGYCNSRIVQFSPSGKFITQWGEESSGSSPLPGQFTVPHSLALVPLLGQLCVADRENGRIQCFKTDTKEFVREIKHSSFGRNVFAISYIPGLLFAVNGKPHFGDQEPVQGFVMNFSNGEIIDIFKPVRKHFDMPHDIVASEDGTVYIGDAHTNTVWKFTLTEKLEHRSVKKAGIEVQEIKEAEAVVETKMENKPTSSELQKMQEKQKLIKEPGSGVPVVLITTLLVIPVVVLLAIAIFIRWKKSRAFGDSEHKLETSSGRVLGRFRGKGSGGLNLGNFFASRKGYSRKGFDRLSTEGSDQEKEDDGSESEEEYSAPLPALAPSSS
[1]
  Km: 550 µM
[2]
  Km: 7 µM
[3]
  Km: 1200 µM
[4]
  Km: 9900 µM
[5]
  Km: 860 µM
[6]
  Km: 11 µM
[7]
  Km: 16 µM
[8]
  Km: 960 µM
[9]
  Km: 18 µM
[10]
  Km: 190 µM
[11]
  Km: 27 µM
[12]
  Km: 200 µM
[13]
  Km: 14 µM
[14]
  Km: 4000 µM
[15]
  Km: 200 µM
[16]
  Km: 3000 µM
[17]
  Km: 35 µM
[18]
  Km: 6500 µM
[19]
  Km: 880 µM
[20]
  Km: 660 µM
[21]
  Km: 6 µM
[22]
  Km: 1600 µM
[23]
  Km: 7500 µM
[24]
  Km: 860 µM
[25]
  Km: 8 µM
[26]
  Km: 6 µM
[27]
  Km: 1000 µM
[28]
  Km: 8 µM
[29]
  Km: 36 µM
[30]
  Km: 5 µM
[31]
  Km: 200 µM
[32]
  Km: 8 µM
[33]
  Km: 5000 µM
[34]
  Km: 180 µM
[35]
  Km: 3000 µM
[36]
  Km: 40 µM
[37]
  Km: 6000 µM
[38]
  Km: 980 µM
